The text below walks through data of the nanobody polyreactivity screen of Harvey et al. (2022).

A short description of this data set: yeast display, Sf9 membrane polyspecificity reagent, FACS + sequencing; frameworks hold sequencing errors. The essentials:
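A synthetic nanobody library was expressed on Saccharomyces cerevisiae BJ5465 by galactose induction for 36–48 hours. The library was stained for 1 hour at 4 °C with 10% biotinylated, detergent-solubilized Sf9 membrane reagent and enriched with streptavidin microbeads before FACS. Low and high (top ~1%) gates were set on anti-HA fluorescence for expression and streptavidin fluorescence for reagent binding, and each polyreactivity label reflects the gate of origin.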
With “QVQLVESGGVLVQAGGSLRLSCAASGSTFVYNAMGWYRQAPGKERELVARISWSVTDTYYADSVKGRFTISRDNAKNTVYLQMNSLKPEDTAVYYCNTDVTYSHLVFGYDYWGQGTQVTVSS”, the “polyreactivity (PSR sort gate)” value is reported as “low polyreactivity”.
As to “QVQLVESGGVLVQAGGSLRLSCAASGSTFWLYAMGWNRQAPRKERELVAAITRSGGRTNYADSVKGRFTISRDNAKNTVYLQMNSLKPEDTAVYYCAAEYLGVSYNNWAYDFWGQGTQVTVSS”, the “polyreactivity (PSR sort gate)” value is “low polyreactivity”.
The value for “QVQLVESGGVLVQAGGSLRLSCAASGSTFYGYAMGWYRQAPAKERELVAAITRSGGSTYYADSVKGRFTISRDNAKNTVYLQMNSLKPEDTAVYYCARQDRDTYYHRYYYGGQGTQVTVSS” was “high polyreactivity”; that for “QVQLVESGGVLVQAGGSLRLSCAASGSTSDCYDMGWYRQAPGKEWELVAAISTGDGITYYADSVKGRFTISRDNAKNTVYLHMNRLKPEDTAVYYCAAEVELSGGSDYWGQGTQVTVSS” was “low polyreactivity”; that for “QVQLVESGGVLVQAGGSLRLSCASSGSIFYIYGMGWSRQAPWKERELVARISSGDRTNYADSVKGRFTISRDNAKNRVYLQMNSRNPDDTAVYYCAAKKRKIAGVGGDYWGQGTQVTVSS” was “high polyreactivity”.
In the case of “QVQLVESGGWLDQAGGSLRLSCAASGRTLGYYAMGWYRQAPGKERELVASIRYSGGSTYADSVKGRFTISRDNAKNTVYLQMNSLKPEDTAVYYCATGDSFRCYSALSRYDYWGQGTQVTVSS”, the “polyreactivity (PSR sort gate)” value was “high polyreactivity”.
For the sequence “QVQLVESGGWLVQAGGSLRLSCDASGITFYRNAVGWYRPAPGKERELVADITVSGGSTYYADSVKGRFTISRDNAKNTVYLQMNSLKPEDTAVYYCNAGLYQYDVWAYYIRYDYWGQGTQVTVSS”, the “polyreactivity (PSR sort gate)” value is reported as “low polyreactivity”.
The result for “QVQLVESGLCLVQAGGSLRLSCAASGRIFRSYLMGWYRPAPGKERELVAAISNSGTRTYYADSVKGRFTISRDNAKNTVYLQKNSLKPEDTAVYYFITRRGRGSVDYDYWGQGSQVTVSS” reads “high polyreactivity”; that for “QVQLVESGLGLVQAGGSLRLSCAASGSTFSNNAMGWYRQAPGKERELVASITRSGGSTYYADTVKGRFTISRDNAKNTVYLQMNSLKPEDTAVYYCNADGYYDYDYGEWGQGTQVTGSS”, “low polyreactivity”.
Consider “QVQLVESGLGLVQAGGSLRLSCAHSGSTLVYNDMRWYRQAPGKEREFVAAIRSNDGSTYYADSVNGRFTISRDNAKNTVYLQMNSLTPEDTAVYYCAATFSSAFAYYYWGQGTQVTVSS”, for which the “polyreactivity (PSR sort gate)” value is “low polyreactivity”.
Take “QVQLVESGLGLVQAGGSLSLSCAASGIIFSWNSMGWYIEAPGKERELVAAITRGGGGTTYYADYVKGRFTISRDKAKNTVYLQMNSLKPEDTAVYYCAKAYEVRFEVDYCGQGTQVTVSS”: the “polyreactivity (PSR sort gate)” value is reported as “low polyreactivity”.
Consider “QVQLVESGRGLDQAGGSLRLNCAASGSIFVRYAMGLNRQAPGKERELVAGITNSGGSTYYADSVKGRFTISRDNAMNTVYLQMNSLKPEDTAVYYCAADAGGWWYKYYYWGQGTQVTVSS”, for which the “polyreactivity (PSR sort gate)” value was “high polyreactivity”.
“QVQLVESGRGLFKAGGSLRLSCAASGSIFDGNAMGWYRQAPGKERELVATMSWCGGSTYYADSVKGRFTISRDNSKNNVYLQMYSVNPEETAVYHCGKTPYRRYRYGGYTYSTYDYWGQGTQVTVSS”: the “polyreactivity (PSR sort gate)” value is “low polyreactivity”.
Consider “QVQLVESGRGLFQAGGSLRLSCAASGSTFYTNAMVWYRQAPGKEWELVATITSSGGITSYADSVKGRFTISRDNAKITVYLHMNSLKPEDTAVYYCAADFGASYDTHEYGYWGQGTQVTVSS”, for which the “polyreactivity (PSR sort gate)” value is given as “low polyreactivity”.
“QVQLVESGRGLLQAGGSLRLSCAASGRIFTRYAMGWYRQAPGKERELVAAISSGGGNTYYADSVKGRFTISRYNAKNTVYLQMNILKPEDTAVYYCAALRSWRKTGGAQRYWYDYWGQGTQVTVLS”: the “polyreactivity (PSR sort gate)” value is reported as “high polyreactivity”.
The value for “QVQLVESGRGLVLAGGSLRLSCAASGFIFLEYAMGWYRQAPGKERELVAASSSRGTRTYYADSVKGRFTISRDNAKNTGYLQMNSLKPEDTAVYYCAARSIAPTNLKTYLLDMDYWGQGTQVTVSS” was “high polyreactivity”.
Take “QVQLVESGRGLVQAGGRLRLSCAASGFTFNRYTMGGYRQAPGKEREFVASITRSGGSTYYADSVKGRFTISRDNAKNTVYLQMNSLTPEDTAVYYCAPVYQYSSRYDHWGQGTQVTVSS”: the “polyreactivity (PSR sort gate)” value was “high polyreactivity”.
For “QVQLVESGRGLVQAGGSHRLSCAASGSTITYYTMGWYREAPGKERELVAAISGSGGRTYYADSVKGRFTISRDNAKNTVYLQMNSLKPEDTAVYYCAAVYQLSRYDYWGQGTQVTVSS”, the “polyreactivity (PSR sort gate)” value is “high polyreactivity”.
As for “QVQLVESGRGLVQAGGSLRISCAASGRIFKNYAMGWYRQAPGKERELVADITWSDSDTSYADSVKGRFTITRDNAKNTVYLQMNCLKPEDTAVYYCAAETFDYADYIANGSAEYDYWGQGSQVTVSS”, the “polyreactivity (PSR sort gate)” value was “high polyreactivity”.
As to “QVQLVESGRGLVQAGGSLRLSCAACGSIFVYNDRGCYRQAPGKERELVAAISASGGRTYSADSVKGRFTISRDNAKNTVYLQMNSLKPEDTAVYYCAKDWLWGPEYDYWGQGTQVTVSS”, the “polyreactivity (PSR sort gate)” value is given as “low polyreactivity”.
For “QVQLVESGRGLVQAGGSLRLSCAASGFIFLKFAKGWYRQAPGKERELVARITSTGGSTYYADSVKGRFTISRDNAKNTVYLQMNSLKPEDTAVYYCARDTVPSSDPWYYAWGGFEFDYWGQGTQVTVSS”, the “polyreactivity (PSR sort gate)” value is reported as “low polyreactivity”.
As to “QVQLVESGRGLVQAGGSLRLSCAASGFIFNLYAMGWYRQAPGKERELVAAISGGGSTYYAYSVKGRFTISRDNAKNTVYLQMISLKPEDNAVYYCAKKGGHRTYGYDSWGQGTQVTVSS”, the “polyreactivity (PSR sort gate)” value is given as “low polyreactivity”.
With “QVQLVESGRGLVQAGGSLRLSCAASGFIFSNAIGWYRQAPGKERELVAAISRSGGSTYYADSVKGRVTISRDNAKNTVSLQMNSLKPEDTAVEYCAARSYPRSPVRYDYWGQGTQVTVSS”, the “polyreactivity (PSR sort gate)” value is “high polyreactivity”.
For the sequence “QVQLVESGRGLVQAGGSLRLSCAASGFTFPNYAMGWYRQAPGKERELVASITRRAGSTNYADSVKGRFTISRDNAKNTVYLQMNSLKPEDTAVYYCNTVVLRYLYNYWGQGTQVTVSS”, the “polyreactivity (PSR sort gate)” value is “high polyreactivity”.
Consider “QVQLVESGRGLVQAGGSLRLSCAASGFTFVYYAMGWYRQAPGKERELVATISGNGGRTYYADSVKGRFTISRDNAKNTVYLQMNSLKPEDTAVYYCAALLYIRSVGYDYWGQGTQVTVSS”, for which the “polyreactivity (PSR sort gate)” value is reported as “low polyreactivity”.
For the sequence “QVQLVESGRGLVQAGGSLRLSCAASGFTFYRYAMGWYRQAPGKERELVAAISWSGGSTYYADSVKGRFTISRDNAKNTVYLQMNSLKPEDTAVYYCAANRRFVGTGSTYYYWGQGTHVTVSS”, the “polyreactivity (PSR sort gate)” value is “high polyreactivity”.
Regarding “QVQLVESGRGLVQAGGSLRLSCAASGGSIPYYAMGWYRQAPGKERELVAAINYSGGSTYYADSVKGRFTISRDNAKNSVYLQMNSLKPEDTAVDYCAARHRYHRGYGYWGQGTQVTLSS”, the “polyreactivity (PSR sort gate)” value is “high polyreactivity”.
As to “QVQLVESGRGLVQAGGSLRLSCAASGGTFRTYAMAWYRQAPGKERELVAAISVSGGRTYYADSVKGRFTISRDNAKNTVYLQMNSLKPEDTAVYYCAAYWHGFFKYWEMGYWGQGTQVTVSS”, the “polyreactivity (PSR sort gate)” value is reported as “high polyreactivity”.
In the case of “QVQLVESGRGLVQAGGSLRLSCAASGIFTRYAMGWYRQAPGKERELVAAISRGGGSTYYADSVKGSFTISRDNAKNTVYLQMNSLKPEDTAVYYCAADNSPRPYDYWGQGTQVTVSS”, the “polyreactivity (PSR sort gate)” value is recorded as “high polyreactivity”.
Take “QVQLVESGRGLVQAGGSLRLSCAASGIIFTRYAMGWYRQAPGKERDLVAGISYSGSSTYYADSVKGRFTISRDNAKNTVYLQMNSLKPEDTAVYYCAAEFVTYYSSSKRAYYYWGQGTQVTVSS”: the “polyreactivity (PSR sort gate)” value is recorded as “high polyreactivity”.
For “QVQLVESGRGLVQAGGSLRLSCAASGLNFYDNMGWYRQAPGKERDLVAAISSSGGSTSYADSVKGRFTISRDNAKNTVYLQMNSLNPEDTAVYYCAAEWYPYPWGYGYWGQGTQVTVSS”, the “polyreactivity (PSR sort gate)” value is on record as “low polyreactivity”.
Turning to “QVQLVESGRGLVQAGGSLRLSCAASGLTFTPYAMGWYRQAPGKERELVAAITSGGRTYYADSVKGRFTSSRDNAKNTVYLQMNSLKPEDTAVYYCNADPEYSWWYYGLDYWGQGTQVTVSW”, the “polyreactivity (PSR sort gate)” value is “high polyreactivity”.
For “QVQLVESGRGLVQAGGSLRLSCAASGRIFDHYAMGWYRQAPGKERELVAAITWSGANTYYADSVKGRFTISRDNAKNTVYLQMNSLKPEDTAVYYCAAYNGAHSHFGYWGQGTQVTVSS”, the “polyreactivity (PSR sort gate)” value is reported as “low polyreactivity”.
For “QVQLVESGRGLVQAGGSLRLSCAASGRIFGVYAMGWDRQAPGKERELVAAISGSTTRTYYADSVKGRFTISRDTAKNTVYLQMNSLKPEDTAVYYCAARSYTPSYKMDYWGQGTQVTVSS”, the “polyreactivity (PSR sort gate)” value is “high polyreactivity”.
“QVQLVESGRGLVQAGGSLRLSCAASGRIFKAYAMGWYRQATGKERELVAAITRGGRTKYADSVKGRFTISRDNAKNTVYLQMNSLKPEDTAVYYCAAELPGGYLVDYDYWGHGTQVTVSS”: the “polyreactivity (PSR sort gate)” value is recorded as “high polyreactivity”.
“QVQLVESGRGLVQAGGSLRLSCAASGRIGKYAMGWYRQAPGKERELVATISSTGTTNYADSVKGRFTISRDNAKNTVYLQMNSLKPDDTAVYYCAAVRHKEYDYWGQGTQVTVSS”: the “polyreactivity (PSR sort gate)” value is on record as “high polyreactivity”.
In the case of “QVQLVESGRGLVQAGGSLRLSCAASGRISVFNAMGWYRQAPGKERELVAAISWSGGSTYYADSVKGRFTISRDNAKNTVYLQMNSLKPEDTAVYYCAARGHYQYYWGQGTQVTVSS”, the “polyreactivity (PSR sort gate)” value was “low polyreactivity”.
As for “QVQLVESGRGLVQAGGSLRLSCAASGRTFDFNAMGWYRQAPGKERELVAAISSDSDTYYADSVKGRFTISRDNAKNTVFLQMNSLKPEDTAVYYCAAEHQYPYGWYYYWGQGTQVTVSS”, the “polyreactivity (PSR sort gate)” value was “high polyreactivity”.
The result for “QVQLVESGRGLVQAGGSLRLSCAASGRTFYGYARGCYRQAPGKERELVARISSGGGTYYADSVKGRFIISRDNAKYTVYLQMNSLKPEDTAVYYCNAEVYRWSGSYTGWDSWHDDWGQGTQVTVSS” reads “low polyreactivity”; that for “QVQLVESGRGLVQAGGSLRLSCAASGRTFYYYTMGWYRQAPGKERELVAAISYSGGSTSYADSVKGRFTISRYNAKNTVYLQMNRLKPEDTAVYYCNAPYKYYTQRRYHYDYCGQGTQVTVSS”, “high polyreactivity”.
